According to the supplement of paper PMC9170038:

System: MS2 coat protein
Assay: apparent KD of MS2 coat protein; designed switch direction (-1 OFF switch, 1 ON switch): -1; higher = weaker reporter binding
Procedure, shortened: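 The buffer was Tris-HCl pH 7.5 with KCl, MgCl2, BSA, DTT, tRNA and Tween-20. In it, SNAP-549-labelled MS2 coat protein was titrated in doubling steps from 0.7 or 1.5 nM to 3 µM over chip-bound RNA switches transcribed by stalled E. coli RNA polymerase on Illumina chips. Apparent KD is the per-design median over clusters of curve fits to normalised fluorescence.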

[1] = Eterna round: R95, input ligand: microRNA oligo, concentration not stated
[2] = Eterna round: R95, input ligand: FMN 200 uM
[3] = Eterna round: R95, input ligand: none
[4] = input ligand: microRNA oligo, concentration not stated

| Sequence | apparent KD of MS2 coat protein [1] [nM] | apparent KD of MS2 coat protein [2] [nM] | apparent KD of MS2 coat protein [3] [nM] | apparent KD of MS2 coat protein (input ligand: FMN 200 uM) [nM] | apparent KD of MS2 coat protein (input ligand: none) [nM] | apparent KD of MS2 coat protein [4] [nM] |
| --- | --- | --- | --- | --- | --- | --- |
| GUUAAGGUAGGAUAUACGAUAAUAUAGGGUAGAAUUAUAACACAUGAGGAUCACCCAUGUAGAAGGACCAAUUG [Mat - Exclusion 2 - Mod of my Tesla design - D52] (puzzle: Exclusion 2) | 25.8 | – | – | – | – | – |
| GCGAAAGCAAGCAAGUGAAACAUGAGGAUCACCCAUGUCCUCGUUUGCUCGUCUUAUAAGCUAUGCGAAAGCAUAGC [Sensor 3, v1 - 4] (puzzle: Sensor v3, turn-off variant 1) | 105 | 12.9 | 10.2 | – | – | – |
| CUUUUGUGAGGAUAUCAGUAGUUAAUAAAUAAAAUUACUACUGAGAAGGCACAUGAGGAUCACCCAUGUUCCUC [salish99_ex3_r3_075] (puzzle: Exclusion 4) | 39.4 | – | – | – | – | – |
| AGAUGGCGAGGAUAUACAUGAGGAUCACCCAUGUGAAGAAUAAUAGUGAGGAAGAAAAGUAGAAGGCGCUGUCA [Mat - Exclusion 3 - Mod of Salish D33] (puzzle: Exclusion 3) | 37 | – | – | – | – | – |
| GAGUAGGUAGGAUAUACGAUAAUAUAGGGUAGAUAUAUAACACAUGAGGAUCACCCAUGUAGAAGGACCAGGAG [Mat - Exclusion 2 - Mod of my Tesla design - D63] (puzzle: Exclusion 2) | 38.3 | 115 | 36.6 | – | – | – |
| CCGAAAAGGAAGGAUAUGCUAGACGAAAGUCUAGCAGAAGGUCCUACAUGAGGAUCACCCAUGUGUCCUAUCGG [Mat - Exclusion 6 - Eli Mod - D39] (Eterna round: R97, puzzle: Exclusion 6) | – | – | – | 49.9 | 43.4 | – |
| CUCUUGUCAGGAUAUCUUACAUAACAAUCGUAGUUACAAUUGGAGAAGGGACAUGAGGAUCACCCAUGUUAGCG [tap-tap-tappy34] (Eterna round: R97, puzzle: Exclusion 4) | – | – | – | 337 | 149 | – |
| AGUAUAGUCCAUGGCCGCAAGCUUUUUACUUGUCUUACCACAUGAGGAUCACCCAUGUGACAUGGGCACCUUAUGAU [Sensor v3, turn-off variant 2 (MOD of Oranla v.4)] (puzzle: Sensor v3, turn-off variant 2) | 34.3 | 20.4 | 19.6 | – | – | – |
| AGUAGUAGUAUCCGGUCCUACAUGAGGAUCACCCAUGUAGCUAGACGUGCACGCGAUGCUCGUCAGACUACCAGAUG [salish99_TOv1_r3_045] (puzzle: Sensor v3, turn-off variant 1) | 45.1 | 48.6 | 59.5 | – | – | – |
| GGCGGACAUGAGGAUCACCCAUGUAAGGAUAUUAGGCGAUCGUCGAUAGACGAUAGCCUGAGAAGGUACGCGCC [Mat - Exclusion 1 - Eli Mod - D14] (Eterna round: R97, puzzle: Exclusion 1) | – | – | – | 18.6 | 17.1 | – |
| CCUCCGCAUUAGGAUAUCGUCACAGAAAUGUGACGAGAAGGAAUGACAUGAGGAUCACCCAUGUUAACGUGAUG [Mod of Brourd 15 - Jieux - Exclusion 6] (Eterna round: R97, puzzle: Exclusion 6) | – | – | – | 276 | 48.7 | – |
| AAUCCACAUGAGGAUCACCCAUGUCAGGAUAUCGCGCGCGCGUUUUCGGUCUUUCGCGCGAGAAGGGACGACUG (puzzle: Exclusion 1) | 14.1 | – | – | – | – | – |
| CUAAAUCAUGUAGGAUAUGCGUGGCAAAGCUAUGCAGAAGGACAUGAGGAUCACCCAUGUCAUUCCGUCUGCGUACAGACGGGA [Mat - Exclusion NG 1 - Mod of JL - D49] (Eterna round: R96, puzzle: Exclusion NG 1) | – | – | – | 187 | 24.9 | 19.9 |
| GGCGGACAUGAGGAUCACCCAUGUCAGGAUAUUAGGCGAUCGUCGAAAGACGAUAGCCUGAGAAGGGACGCGCC [Eli x1 4.13] (Eterna round: R97, puzzle: Exclusion 1) | – | – | – | 20.6 | 17.7 | – |
| AUUAAGCAGCAGGAUAUAAGUAUCUGAUGGUGGUUAGAAGGGCUGACAUGAGGAUCACCCAUGUGCUCUUCGUG [Tieruseres] (puzzle: Exclusion 6) | 10.1 | 16.1 | 14.1 | – | – | – |
| GGAUGCUGAGUAAGGAUAUGGUAGGCUUGCGCCUACCAGAAGGUACAUGAGGAUCACCCAUGUUAGCAUCCAGU [eternacac ex4r4 #3] (Eterna round: R97, puzzle: Brourd's mod of Exclusion 4) | – | – | – | 19.6 | 16.2 | – |
| AACUCUGAGAAGGAUAUUCAGUGGGAAACGACAGAAGAAGGUUUCACAUGAGGAUCACCCAUGUCGAAUAGUGA [EX6 #75] (Eterna round: R97, puzzle: Exclusion 6) | – | – | – | 46.8 | 48.8 | – |

| Sequence | apparent KD of MS2 coat protein [1] [nM] | apparent KD of MS2 coat protein [2] [nM] | apparent KD of MS2 coat protein [3] [nM] | apparent KD of MS2 coat protein (input ligand: FMN 200 uM) [nM] | apparent KD of MS2 coat protein (input ligand: none) [nM] | apparent KD of MS2 coat protein [4] [nM] |
| --- | --- | --- | --- | --- | --- | --- |
| AGAUGCUCGAGUCGACAUGAGGAUCACCCAUGUACAGUUAAUGAGGAUAUCUGAGACAAAUAGUAGGAGAAGGCGUGAACAUGA [Ex NG3 #11] (Eterna round: R96, puzzle: Exclusion NG 3) | – | – | – | 191 | 90.9 | 68.6 |
| AGUAGGUCUACCUUGGUGGAUCUGCAUUUAUGCAGGUGAACAUGAGGAUCACCCAUGUCCUCAUUUGCUCGUCUUAU [JL turnoff v2 99.28] (puzzle: Sensor v3, turn-off variant 2) | 539 | 55.3 | 61.5 | – | – | – |
| AGUUGUUGCGUAGGAUAUGAGGAUCACCCAUAGUAGGAUAACGAAAGUGAAGGACUGAGGAUUACCCAGAAGGACGUGAUGACA [pwkr exNG2 2xF5 2xFMN.6] (Eterna round: R96, puzzle: Exclusion NG 2) | – | – | – | 602 | 193 | 234 |
| UCGACGUAAGGAUAUAUAAGGAACGAAGUAAGUUGUAGAAAAUAGAAGGUACAUGAGGAUCACCCAUGUUAAGA [JR_Exclu4_Sub061] (puzzle: Exclusion 4) | 19.6 | 19.4 | 18.9 | – | – | – |
| CAAAAGCUAGGAUAUCGUAAACAAGACAUGAGGAUCACCCAUGUGUCCGUGGCUGACCUCCGAGAAGGAGCAAUAU [Bilate] (puzzle: Exclusion 5) | 16.8 | 23.6 | 18.6 | – | – | – |
| GUGCAGGUAGGAUAUCCACCGGCAAACAUGAGGAUCACCCAUGUGACGCUCCCUUGUCUUGGAGAAGGGCCGGCAU [Xetemaaren] (puzzle: Exclusion 5) | 25.2 | – | – | – | – | – |
| UAUUAGCAAGCGAGAUCCCACAUGAGGAUCACCCAUGUGCUCGUGCAUCCAGAAUUACUGGGUGCAGCUCGUCUUAU [Winner reversed engineered 12] (Eterna round: R97, puzzle: Sensor, turn-off variant 1) | – | – | – | 14.9 | 14.7 | – |
| GUUAAACAUGAGGAUCACCCAUGUAAGGAUAUGCUGAGGUCGCGCUGACGUGAAUGAAGCAGAAGGUACAAAUG [Mat - Mod of JL D63] (puzzle: Exclusion 1) | 76.7 | 79.5 | 60.8 | – | – | – |
| UUCCUGUCAGGAUAUGACUAGAUGCACGAAAGUGUUUUUAGUUAGAAGGGACAUGAGGAUCACCCAUGUAGUCC [Bring Us a Shrubbery-19] (puzzle: Exclusion 4) | 21.9 | – | – | – | – | – |
| CAUAGUAAUUAGGAUAUCUGCCGGCUGAACCGAGGAGAAGGGAUUACAUGAGGAUCACCCAUGUGGUCCUAAGA [Relegebe] (puzzle: Exclusion 6) | 14.5 | – | – | – | – | – |
| UUAUUGUAUGUAGGAUAUGCGUAUUAUUGUUAUGCAGAAGGACAUGAGGAUCACCCAUGUAUAUUAUUGUUAUAUAUUAUAUAU [Title] (Eterna round: R96, puzzle: Exclusion NG 1) | – | – | – | 60.9 | 26.7 | 22.7 |
| CAUGAUCUUCGGAUCAUGUACAUGAGGAUCACCCAUGUUACGAGCAGAUCUUCAUACAAGCUUUUUGCUCGUCUUAU [Sensor v3 - Turn-off variant 1 - 34] (puzzle: Sensor v3, turn-off variant 1) | 64.9 | 34.5 | 40.4 | – | – | – |
| UGUUGUUACGUAGGAUAUUGUCAACAGGCAGUAGGAUAUGCGAAAGCAGAAGGACCGCCAACAGGCGAGAAGGACGGGUUAACA [pwkr exNG2 2xF7 2xFMN.3] (Eterna round: R96, puzzle: Exclusion NG 2) | – | – | – | 614 | 42.7 | 514 |
| CCCGUACAUGAGGAUCACCCAUGUCAGGAUAUCUAAUCAUGCUGUAAGGCACAUUGAGGGAGAAGGGACAUAUU [EX1 B.29] (Eterna round: R97, puzzle: Exclusion 1) | – | – | – | 32.4 | 20.8 | – |
| GUAUGGUGAGGAUAUCGCCCUGCCUGCUCAAAGGCGAUGGACGAGAAGGCACAUGAGGAUCACCCAUGUCUGGG [Eternabot (L2) Solution 65] (Eterna round: R97, puzzle: Exclusion 4) | – | – | – | 161 | 539 | – |
| CCAGCGUAUGUGAGGAUAUGCUGGUCCUUGGAUCAGCAGAAGGCACAUGAGGAUCACCCAUGUGGUGACGUUGG [JL bmx4 3.44] (puzzle: Brourd's mod of Exclusion 4) | 143 | 19.1 | 411 | – | – | – |
| GCAAGAAUAGGAUAUACACCAUGCCAGCUUCUAUACAACGCACAUGAGGAUCACCCAUGUAGAAGGGUUCUCUC [Exclusion-2-#11] (Eterna round: R97, puzzle: Exclusion 2) | – | – | – | 336 | 323 | – |
